Results taken from publication PMC2881812.

Target: p22(79-227) (T. brucei)
Assay: SEC

p22(79-227) (domain or fragment)
stoichiometry N: 3
